Reference: patent US20110008369A1 (Merck Sharp & Dohme, published 2011)

B1: mAb 1.8A10 (antibody, V domains shown)
VH: EVQLVESGGGLVKPGGSLKLSCAASGFTFSNYDMSWIRQTPEKRLEWVAYISGGGGNTYYPDTLKGRFTISRDNAKNTLYLQMSSLKSEDTAMFYCVRISLTGIFDYWGQGTTLTVSS
VL: DVLMTQTPLSLPVSLGDQASISCRSSQSIVQSNGNTYLEWYLQKPGQSPKLLIYKVSNRFSGVPDRFSGSGSGTDFTLKISRVEAEDLGVYYCFQGSHVPWTFGGGTKLEIKR
notes: Murine IgG from a hybridoma
B2: mAb 1B8 (antibody, V domains shown)
VH: EVQLVLSGGGFVQPGGSLKLSCAASGFTFSSYAMSWVRQNPERRLVWVATITGGGRNTYYPDSVKGRFTISRDNAKNTLYLQMSSLRSEDTAMYYCTRQGYDGYTWFAYWGQGTLVTVS
VL: not shown
notes: Murine IgG from a hybridoma; also called murine 1B8; fully murine 1B8 mAb
B3: mAb 3H4 (antibody, V domains shown)
VH: QIQLQQSGPELVKPGASVKISCKASGYTFTDYYINWVKQKPGQGLEWIGWIYPGSVNTKYNEKFRGKATLTVDTSSSTAYIQLSGLTSEDTAVYFCARYSNWFFDVWGAGTAVTVS
VL: DIVMTQSPSSLSASLGERVSLTCRASQEISGYLSWLQQKPDGTIKRLIYAASTLDSGVPKRFSGSRSGSDYSLSISSLESEDFADYYCLQYASYPYTFGGGTKLEIKR
notes: Murine IgG from a hybridoma
B4: monomeric Fab of mAb 1B8 (Fab, V domains shown)
VH: B2 VH
VL: not shown
notes: also called 1B8 Fab
B5: monomeric Fab of mAb 1.8A10 (Fab, V domains shown)
VH: B1 VH
VL: B1 VL
notes: also called 1.8A10 Fab
B6: monomeric Fab of mAb 3H4 (Fab, V domains shown)
VH: B3 VH
VL: B3 VL
notes: also called 3H4 Fab
B7: mAb 1G7 (antibody, V domains shown)
VH: EIQLQQSGPELVKPGASVKVSCKASGYAFTSYNIYWVKQSHGKSLEWIGYIDLYNGDTSYNEKFKGKATLTVDKSASTAYMHLNSLTSEDSAVYYCSREGRLSFDYWGQGTLVTVSA
VL: DIVLTQSPASLAVSLGQRATISCRASESVDSYGNSFMNWYQQKPGQPLKLLIYLASNLDSGVPARFSGSGSGTDFSLTIDPVEADDPATYYCQQNNEVPLTFGAGTKLELKR
notes: Murine IgG from a hybridoma
B8: mAb 20B3.1 (antibody, V domains shown)
VH: EVKLVESGGGLVKPGGSLKLSCAASGFTFSSFGMSWVRQTPEKRLEWVATISGGGSNTYYPDSVKGRFTISRDNAKNNLYLQMTSLTSEDTALYYCTRIYDVAWFAYWGQGTLVTVS
VL: not shown
notes: Murine IgG from a hybridoma
B9: mAb 7G3 (antibody, V domains shown)
VH: QVQLQQSGTELVRPGVSVKISCKGSGYSFTDYALHWMKQSHAKSLEWIGVISTHYGDTVYNQRFKGKATMTVDKSSSTAYMELARLTSEDSAIYYCAREGYGSLFYFDQWGQGTPLTVS
VL: CLMTQTPLSLPVSLGDQASISCRSSQTIVHSDGNTYLEWYLQKSGQSPKLLIYKVSNRFSGVPDRFSGSGSGTDFTLKISRVEAEDLGVYYCFQGSHVPYTFGGGTRLEIRR
notes: Murine IgG from a hybridoma
B10: mAb 2.3A9 (antibody, V domains shown)
VH: QVQLQQSDAELVKPGTSVKISCKASGYTFTDHAIHWLKQEPDQGLEWIGYISPGYGDIEYNEKFKGKATLTADKSSSTAYMQLSSLTSEDSAVYFCKVTTGYWGQGTTLTVS
VL: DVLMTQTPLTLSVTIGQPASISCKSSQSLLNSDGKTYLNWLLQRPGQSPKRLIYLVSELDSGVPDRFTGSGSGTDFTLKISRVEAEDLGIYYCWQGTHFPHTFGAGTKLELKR
notes: Murine IgG from a hybridoma

Target: T1, recombinant human PD-1/Fc fusion protein (R&D Systems) (human, UniProt Q15116 25-167)
T1 construct: Bought protein; also called immobilized PD-1; not shown: human Fc portion of the bought fusion protein
T1 sequence (Q15116 25-167 limits assumed): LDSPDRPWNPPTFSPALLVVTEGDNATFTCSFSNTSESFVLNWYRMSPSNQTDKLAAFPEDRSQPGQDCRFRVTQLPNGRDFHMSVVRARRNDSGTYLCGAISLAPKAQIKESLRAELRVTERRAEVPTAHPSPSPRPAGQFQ
Assay: solution-phase ELISA of IgG with PD-1/Fc; mean ± standard error of the mean
Procedure: High-binding 96-well ELISA plates were coated with 50 μL 2 μg/mL PD-1/Fc overnight. After washing and blocking, 50 μL of each PD-1/Fc: IgG mixture was transferred to the ELISA plate, incubated for 30 minutes, washed, incubated with goat anti-mouse antibody conjugated to HRP (human absorbed) for one hour, washed, developed with 10-Acetyl-3,7-dihydroxyphenoxazine ([…]) for three minutes, and read on a fluorescent plate reader. All incubations occurred at room temperature. Data were analyzed as described in K. High et al. Several replicates were conducted on multiple plates and multiple days and analyzed independently to determine a range of experimental equilibrium affinity Kd values.

Binder	Kd [nM]
B1	0.44
B2	0.03
B3	0.011

Target: T1, recombinant human PD-1/Fc fusion …
Assay: SPR (Biacore T100), monomeric Fab over covalently immobilised PD-1/Fc; range of fit Kd
Excerpt: Fractions from the purification column were collected and tested in the Caliper LabChip® system. Only fractions containing pure monomeric Fabs were selected for SPR analysis. Beginning with concentrations determined from the Caliper LabChip®, dilution series were made for each Fab and tested on a Biacore® T100 with the standard kinetic affinity wizard against covalently immobilized PD-1/Fc fusion protein.

Binder	Kd [nM]
B4	5.3 to 7
B5	34 to 43
B6	63 to 77

Target: T2, rhesus PD-1 naturally expressed on activated rhesus CD4+ cells (rhesus macaque, UniProt B0LAJ2 25-288)
T2 sequence (B0LAJ2 entry or part of it limits assumed): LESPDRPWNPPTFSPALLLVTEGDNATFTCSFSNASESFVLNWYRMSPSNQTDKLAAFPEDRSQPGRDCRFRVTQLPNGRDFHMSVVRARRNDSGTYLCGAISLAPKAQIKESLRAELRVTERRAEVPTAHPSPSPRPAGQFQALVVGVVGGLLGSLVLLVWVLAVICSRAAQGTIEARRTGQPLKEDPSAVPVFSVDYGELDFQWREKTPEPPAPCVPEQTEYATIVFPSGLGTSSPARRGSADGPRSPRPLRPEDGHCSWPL
Assay: inhibition of recombinant PD-L1/Fc binding to activated rhesus CD4+ cells by 0.2 ug/ml IgG, 37 C (mean of 2)
Procedure: (§1) 293 cells were transfected to express PD-1 on their cell membranes. Human CD4⁺ cells were activated by incubation with anti-CD3/anti-CD28 beads (approximately 1 bead: 1-2 cells) for 48-72 hours at 37° C. Rhesus CD4⁺ cells (2×10⁶ cells/mL) were activated by incubation in plates coated with 1 μg/mL anti-CD3/anti-CD28 for 24-72 hours at 37° C.

Binder	% inhibition [%]
B1	24
B2	82.3
B7	56.5
B8	75.3
B9	25.5

Target: T3, human PD-1 (Programmed Cell Death 1), expressed on cells (human, UniProt Q15116 25-288)
T3 construct: also called human PD-1 on 293 cells
T3 sequence (Q15116 25-288 limits assumed): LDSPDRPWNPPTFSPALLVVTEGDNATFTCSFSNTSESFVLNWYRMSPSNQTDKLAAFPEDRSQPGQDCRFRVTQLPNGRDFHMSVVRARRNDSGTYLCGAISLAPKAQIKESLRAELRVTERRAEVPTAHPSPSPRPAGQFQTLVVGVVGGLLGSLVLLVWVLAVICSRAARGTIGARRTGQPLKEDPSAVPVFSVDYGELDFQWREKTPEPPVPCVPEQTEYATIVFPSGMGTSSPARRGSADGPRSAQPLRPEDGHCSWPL
Assay: cell binding; 0.2 ug/ml IgG on activated human CD4+ cells, 37 C
Procedure: as §1

Binder	MFI [MFI]
B1	129
B2	145
B3	130
B7	137
B8	154
B9	129
B10	134

Target: T4, homologous Fc (R&D Systems), Fc control surface (human, UniProt P01857-1 100-330 = IgG part, limits assumed)
T4 construct: domain: Fc; Counter-screen surface in the SPR assay; also called human Fc portion
Assay: SPR (Biacore 2000), Fc immobilised on a CM5 chip
Excerpt: Biacore® instruments incorporate microfluidics technology and surface plasmon resonance (SPR). The angle of polarized light reflecting from the side of a gold-coated sensor opposite to the solution phase is a function of the evanescent wave extending into the solution phase and sensitive to the refractive index near that interface. This refractive index is proportional to the mass density of adsorbates (e.g., an antigen or antibody) near the sensor chip interface, and reported in Response Units. […] Time-resolved signals were acquired from all surfaces simultaneously, and the signal from the blank control surface was subtracted as a negative control.

Binder	binding result
B1	no binding (tested: 5 ug/mL (hybridoma supernatant))
B2	no binding (tested: 5 ug/mL (hybridoma supernatant))
B3	no binding (tested: 5 ug/mL (hybridoma supernatant))
B7	no binding (tested: 5 ug/mL (hybridoma supernatant))
B8	no binding (tested: 5 ug/mL (hybridoma supernatant))
B9	no binding (tested: 5 ug/mL (hybridoma supernatant))
B10	no binding (tested: 5 ug/mL (hybridoma supernatant))

Target: T2, rhesus PD-1 naturally expressed on …
Assay: cell binding; 1.0 ug/ml IgG on activated rhesus CD4+ cells, 37 C
Procedure: as §1

Binder	MFI [MFI]
B1	310
B2	1190
B7	812
B8	1240
B9	655

Target: T3, human PD-1 (Programmed Cell Death 1), …
Assay: inhibition of recombinant PD-L1/Fc binding to activated human CD4+ cells by 0.2 ug/ml IgG, 37 C (mean of 2)
Procedure: as §1

Binder	% inhibition [%]
B1	51.7
B2	82.1
B7	74.3
B8	59.6
B9	57.8

Target: T3, human PD-1 (Programmed Cell Death 1), …
Assay: inhibition of recombinant PD-L1/Fc binding to 293 cells expressing human PD-1 by 20 ug/ml IgG, 4 C
Procedure: as §1

Binder	% inhibition [%]
B1	99.4
B2	97.6
B7	98.8
B8	98.2
B9	92.7
